# Reference: US20040053278A1
# Legend:
# [1] = target: constitutively active BMPR-IB; test: cell-based or functional assay
# [2] = target: constitutively active (TD) TβR-I (UniProt P36897); test: cell-based or functional assay
# constitutively active (TD) TβR-I, sequence (P36897 34-503 T204D limits assumed): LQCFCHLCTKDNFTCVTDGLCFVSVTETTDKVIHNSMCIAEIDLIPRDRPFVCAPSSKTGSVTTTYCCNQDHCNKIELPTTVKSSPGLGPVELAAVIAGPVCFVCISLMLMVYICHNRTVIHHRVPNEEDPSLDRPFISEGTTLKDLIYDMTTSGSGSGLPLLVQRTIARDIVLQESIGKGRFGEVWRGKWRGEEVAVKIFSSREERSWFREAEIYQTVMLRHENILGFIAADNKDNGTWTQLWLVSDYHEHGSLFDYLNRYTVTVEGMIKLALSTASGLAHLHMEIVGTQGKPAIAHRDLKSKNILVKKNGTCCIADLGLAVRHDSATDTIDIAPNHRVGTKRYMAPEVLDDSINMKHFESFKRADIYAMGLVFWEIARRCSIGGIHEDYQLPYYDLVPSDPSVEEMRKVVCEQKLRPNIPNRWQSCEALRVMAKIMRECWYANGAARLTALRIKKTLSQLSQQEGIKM
substance,measurement,setting,value
Myc-Smad6 (from UniProt O35182 1-495),Smad1 phosphorylation induced by constitutively active BMPR-IB,[1],60 % reduction
same,"Phosphorylation of Smad2 induced by constitutively active TβR-I ([32P]orthophosphate labeling, immunoprecipitation)",[2],39 % reduction
